pIC50, pKd: −log10 of the molar value.
How the values were obtained:
HLA-B*07:02 = test: IEDB peptide-MHC binding, purified MHC/competitive/fluorescence; ≥ and ≤ were set here for values at or beyond the usual limits of such assays
HLA-A*02:17 = test: IEDB peptide-MHC binding, purified MHC/competitive/radioactivity; filed as Kd, often an IC50 or EC50 that approximates it; ≥ and ≤ were set here for values at or beyond the usual limits of such assays
HLA-A*02:03 [1] = test: as above
HLA-A*02:01 [2] = test: as above
HLA-B*08:01 [3] = test: as above
HLA-A*02:03 [4] = test: IEDB peptide-MHC binding, purified MHC/competitive/fluorescence; filed as Kd, often an IC50 or EC50 that approximates it; ≥ and ≤ were set here for values at or beyond the usual limits of such assays; settings: source organism: Variola virus
HLA-A*11:01 [5] = test: as above
HLA-B*46:01 = test: IEDB peptide-MHC binding, purified MHC/direct/fluorescence; filed as Kd, often an IC50 or EC50 that approximates it; ≥ and ≤ were set here for values at or beyond the usual limits of such assays; settings: source organism: Camelpox virus M-96
HLA-B*40:01 = test: as above; settings: source organism: Camelpox virus M-96
HLA-B*15:17 = test: as above; settings: source organism: Camelpox virus M-96
HLA-B*57:01 = test: as above; settings: source organism: Camelpox virus M-96
HLA-A*03:01 [6] = test: as above; settings: source organism: Camelpox virus M-96
HLA-A*69:01 = test: as above; settings: source organism: Camelpox virus M-96
HLA-B*27:05 = test: as above; settings: source organism: Camelpox virus M-96
HLA-A*26:01 = test: as above; settings: source organism: Camelpox virus M-96
HLA-B*58:01 = test: as above; settings: source organism: Camelpox virus M-96
HLA-A*31:01 = test: as above; settings: source organism: Camelpox virus M-96
HLA-A*01:01 = test: as above; settings: source organism: Camelpox virus M-96
HLA-A*02:01 [7] = test: as above; settings: source organism: Camelpox virus M-96
HLA-B*48:01 = test: as above; settings: source organism: Camelpox virus M-96
HLA-B*15:01 [8] = test: as above; settings: source organism: Camelpox virus M-96
HLA-B*08:01 [9] = test: IEDB peptide-MHC binding, purified MHC/competitive/fluorescence; filed as Kd, often an IC50 or EC50 that approximates it; ≥ and ≤ were set here for values at or beyond the usual limits of such assays
HLA-B*15:01 [10] = test: as above; settings: source organism: Vaccinia virus WR
HLA-A*68:01 = test: IEDB peptide-MHC binding, purified MHC/competitive/radioactivity; filed as Kd, often an IC50 or EC50 that approximates it; ≥ and ≤ were set here for values at or beyond the usual limits of such assays; settings: source organism: Vaccinia virus WR
HLA-A*33:01 = test: as above; settings: source organism: Vaccinia virus WR
HLA-A*03:01 [11] = test: IEDB peptide-MHC binding, purified MHC/competitive/fluorescence; ≥ and ≤ were set here for values at or beyond the usual limits of such assays
HLA-A*11:01 [12] = test: as above
HLA-A*24:02 = test: as above
HLA-A*02:01 [13] = test: as above
HLA-B*15:01 [14] = test: as above
HLA-A*02:06 = test: IEDB peptide-MHC binding, purified MHC/competitive/radioactivity; filed as Kd, often an IC50 or EC50 that approximates it; ≥ and ≤ were set here for values at or beyond the usual limits of such assays
HLA-A*68:02 = test: as above; settings: source organism: Dengue virus 2 Peru/IQT2913/1996
HLA-C*15:02 = test: IEDB peptide-MHC binding, purified MHC/direct/fluorescence; filed as Kd, often an IC50 or EC50 that approximates it; ≥ and ≤ were set here for values at or beyond the usual limits of such assays
HLA-A*24:03 = test: as above; settings: source organism: Vibrio cholerae
HLA-C*14:02 = test: as above
HLA-A*29:02 = test: IEDB peptide-MHC binding, purified MHC/competitive/fluorescence; filed as Kd, often an IC50 or EC50 that approximates it; ≥ and ≤ were set here for values at or beyond the usual limits of such assays; settings: source organism: Clostridium botulinum A str. ATCC 3502
[15] = source organism: Zaire ebolavirus
[16] = source organism: Dengue virus 3 Sri Lanka/1266/2000
[17] = source organism: Vaccinia virus WR
[18] = source organism: Sudan ebolavirus
[19] = source organism: Dengue virus 2 Jamaica/1409/1983
[20] = source organism: Dengue virus 2 Peru/IQT2913/1996
[21] = source organism: Dengue virus 2 Thailand/NGS-C/1944
[22] = source organism: Vibrio cholerae 2740-80
[23] = source organism: Clostridium botulinum A str. ATCC 3502

ADDETSSLP gave a pIC50 (HLA-B*07:02; [15]) of no more than 3.76.

CLMMILPAA showed a pKd (HLA-A*02:17; [16]) of 6.36, a pKd (HLA-A*02:03 [1]; [16]) of 8.98 and a pKd (HLA-A*02:01 [2]; [16]) of 8.92. The pKd (HLA-B*08:01 [3]; [16]) was 5.97.

DILASIIDY was tested, and the pKd (HLA-A*02:03 [4]) was 5.73, the pKd (HLA-A*11:01 [5]; source organism: Variola virus) was no more than 4.70 and the pKd (HLA-B*46:01) was no more than 4.70. It also gave a pKd (HLA-B*40:01) of no more than 4.70, a pKd (HLA-B*15:17) of 6.52 and a pKd (HLA-B*57:01) of no more than 4.70. It also gave a pKd (HLA-A*03:01 [6]) of no more than 4.70, a pKd (HLA-A*69:01) of no more than 4.70 and a pKd (HLA-B*27:05) of no more than 4.70. The pKd (HLA-A*26:01) was 6.44, the pKd (HLA-B*58:01) was no more than 4.70 and the pKd (HLA-A*31:01) was no more than 4.70. For the same sequence, the pKd (HLA-A*01:01) was no more than 4.70, the pKd (HLA-A*02:01 [7]) was no more than 4.70 and the pKd (HLA-B*48:01) was no more than 4.70. The pKd (HLA-B*15:01 [8]) was no more than 4.70.

Work on EIKDRILSY yielded a pKd (HLA-A*11:01 [5]; [17]) of no more than 4.70, a pKd (HLA-B*08:01 [9]; [17]) of 5.70 and a pKd (HLA-B*15:01 [10]) of 6.78. The pKd (HLA-A*68:01) was 6.94, the pKd (HLA-A*33:01) was no more than 4.69 and the pKd (HLA-B*40:01) was no more than 4.70. The pKd (HLA-B*15:17) was 6.20, the pKd (HLA-B*57:01) was no more than 4.70 and the pKd (HLA-A*03:01 [6]) was no more than 4.70. It also gave a pKd (HLA-A*69:01) of no more than 4.70, a pKd (HLA-B*27:05) of no more than 4.70 and a pKd (HLA-A*26:01) of 8.52. The pKd (HLA-B*58:01) was no more than 4.70, the pKd (HLA-A*31:01) was no more than 4.70 and the pKd (HLA-A*01:01) was no more than 4.70. For the same sequence, the pKd (HLA-A*02:01 [7]) was no more than 4.70 and the pKd (HLA-B*48:01) was no more than 4.70.

With FVFTLTVPSER the pKd (HLA-A*11:01 [5]; source organism: Influenza A virus (A/swine/Hannover/1/1981(H1N1))) was 5.55.

With IFSAWISHR the pIC50 (HLA-A*03:01 [11]; source organism: Variola virus) was 6.00, the pIC50 (HLA-A*11:01 [12]; source organism: Variola virus) was no more than 4.15 and the pIC50 (HLA-B*07:02; source organism: Variola virus) was no more than 3.24. It also gave a pIC50 (HLA-A*24:02; source organism: Variola virus) of 7.39.

With KLFLESGAV the pIC50 (HLA-A*03:01 [11]; [15]) was no more than 3.55, the pIC50 (HLA-A*02:01 [13]; [15]) was 5.76 and the pIC50 (HLA-A*24:02; [15]) was no more than 3.74. It also gave a pIC50 (HLA-B*15:01 [14]; [15]) of no more than 4.09.

KLYLVDYGL gave a pIC50 (HLA-A*03:01 [11]; [17]) of no more than 3.89, a pIC50 (HLA-A*24:02; [17]) of 4.78 and a pIC50 (HLA-B*15:01 [14]; [17]) of 4.45.

KQDRSDGYF was tested, and the pIC50 (HLA-B*15:01 [14]; source organism: Vaccinia virus Copenhagen) was 4.22.

In the case of LFKIDNNTF, the pIC50 (HLA-A*24:02; [18]) was 7.60 and the pIC50 (HLA-B*15:01 [14]; [18]) was 4.84.

LLVISGVFPV gave a pKd (HLA-A*02:06; [19]) of 9.14, a pKd (HLA-A*02:17; [19]) of 8.56 and a pKd (HLA-A*02:03 [1]; [19]) of 7.77. It also gave a pKd (HLA-A*02:01 [2]; [19]) of 9.55.

Sequence LMGLGKGWPL has a pKd (HLA-A*02:17; [19]) of 6.04, a pKd (HLA-A*02:01 [2]; [19]) of 6.79 and a pKd (HLA-B*08:01 [3]; [19]) of 6.52.

In the case of LQVSDVDKL, the pIC50 (HLA-A*02:01 [13]; [15]) was 5.25 and the pIC50 (HLA-B*15:01 [14]; [15]) was no more than 4.12.

Work on LVISGLFPV yielded a pKd (HLA-A*02:06; [20]) of 9.44, a pKd (HLA-A*02:17; [21]) of 8.66 and a pKd (HLA-A*02:03 [1]; [20]) of 8.44. The pKd (HLA-A*68:02) was 8.91 and the pKd (HLA-A*02:01 [2]; [21]) was 8.53.

Sequence LYKSINVEY has a pIC50 (HLA-A*24:02; [17]) of 6.96 and a pIC50 (HLA-B*15:01 [14]; [17]) of 5.12.

Sequence QARRMVQAM has a pKd (HLA-B*08:01 [9]; source organism: Influenza A virus (A/Wellington/8/2004(H3N2))) of 7.06.

QLNDTIHLH was tested, and the pIC50 (HLA-A*03:01 [11]; [18]) was 4.30, the pIC50 (HLA-A*11:01 [12]; [18]) was 5.22 and the pIC50 (HLA-A*02:01 [13]; [18]) was 4.40. For the same sequence, the pIC50 (HLA-B*15:01 [14]; [18]) was 4.27.

RFNNLTVYF gave a pKd (HLA-C*15:02; [22]) of no more than 4.70, a pKd (HLA-A*24:03) of 8.48 and a pKd (HLA-C*14:02; [22]) of 5.54.

RPIQNVPGP showed a pIC50 (HLA-A*02:01 [13]; [15]) of no more than 3.33 and a pIC50 (HLA-B*07:02; [15]) of 4.54.

RPQKIWMAP gave a pIC50 (HLA-B*07:02; [15]) of 5.15.

In the case of SNRTPTVAP, the pIC50 (HLA-A*02:01 [13]; [15]) was no more than 3.72, the pIC50 (HLA-B*07:02; [15]) was 4.38 and the pIC50 (HLA-A*24:02; [15]) was no more than 4.03.

SPGMVPLHI was tested, and the pIC50 (HLA-B*07:02; [18]) was 5.18 and the pIC50 (HLA-A*24:02; [18]) was 4.61.

VIILFQRTF was tested, and the pIC50 (HLA-A*02:01 [13]; [15]) was no more than 3.09, the pIC50 (HLA-A*24:02; [15]) was 7.25 and the pIC50 (HLA-B*15:01 [14]; [15]) was no more than 4.07.

YMIGYTAYY showed a pKd (HLA-A*29:02) of no less than 10.00, a pKd (HLA-C*15:02; [23]) of 5.40 and a pKd (HLA-C*14:02; [23]) of no less than 9.00.

Reference: the Immune Epitope Database (IEDB)
